The values below are quoted from earlier work in article PMC4132707.

Data set [1] has as its target H1K26me3 peptide (Homo sapiens) (UniProt P10412).
The target in data set [2] is H3K27me3 peptide (Homo sapiens) (UniProt P68431).

Sequence of EED (O75530 2-441): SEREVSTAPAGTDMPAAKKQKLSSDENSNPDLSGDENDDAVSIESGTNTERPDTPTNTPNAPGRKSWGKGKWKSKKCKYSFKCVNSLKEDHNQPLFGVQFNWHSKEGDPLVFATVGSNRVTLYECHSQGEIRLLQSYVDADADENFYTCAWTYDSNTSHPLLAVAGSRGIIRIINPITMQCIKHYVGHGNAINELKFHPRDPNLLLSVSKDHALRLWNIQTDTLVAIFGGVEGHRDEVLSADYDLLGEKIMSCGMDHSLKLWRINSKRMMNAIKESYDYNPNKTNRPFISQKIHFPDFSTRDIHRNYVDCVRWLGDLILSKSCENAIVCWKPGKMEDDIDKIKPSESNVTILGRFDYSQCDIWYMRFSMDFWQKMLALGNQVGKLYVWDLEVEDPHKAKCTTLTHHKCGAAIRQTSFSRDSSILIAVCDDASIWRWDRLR
Sequence of H1K26me3 peptide (Homo sapiens) (P10412 2-219): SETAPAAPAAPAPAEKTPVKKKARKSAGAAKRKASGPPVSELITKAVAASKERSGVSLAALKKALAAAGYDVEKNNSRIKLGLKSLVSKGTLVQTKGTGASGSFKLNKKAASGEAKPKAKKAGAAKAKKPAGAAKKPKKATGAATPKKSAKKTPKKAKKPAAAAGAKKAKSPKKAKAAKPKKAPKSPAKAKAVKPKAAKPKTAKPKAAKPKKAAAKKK

Turning to EED (from UniProt O75530), the Kd in data set [1] and in data set [2] was over 20 µM each time.
